Values of other authors, collected in publication PMC4826273.

Target: Dll-1 (Homo sapiens) (UniProt O00548)
Experiment: surface plasmon resonance

Sequence of UniProt O00548 (O00548 18-545): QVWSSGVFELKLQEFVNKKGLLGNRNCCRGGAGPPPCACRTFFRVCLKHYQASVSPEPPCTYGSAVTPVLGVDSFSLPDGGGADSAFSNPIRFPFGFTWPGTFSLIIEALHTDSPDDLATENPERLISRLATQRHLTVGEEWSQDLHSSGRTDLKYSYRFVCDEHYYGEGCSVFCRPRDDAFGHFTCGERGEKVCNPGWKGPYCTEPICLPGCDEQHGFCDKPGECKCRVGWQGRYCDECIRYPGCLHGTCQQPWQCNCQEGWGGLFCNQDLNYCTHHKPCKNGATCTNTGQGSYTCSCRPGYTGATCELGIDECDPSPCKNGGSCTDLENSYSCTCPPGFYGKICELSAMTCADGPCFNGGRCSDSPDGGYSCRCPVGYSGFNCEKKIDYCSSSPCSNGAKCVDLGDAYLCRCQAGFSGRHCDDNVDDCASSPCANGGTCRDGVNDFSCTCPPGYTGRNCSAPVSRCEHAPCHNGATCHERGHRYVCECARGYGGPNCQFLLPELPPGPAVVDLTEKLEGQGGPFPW

Kd: 130 µM
Substance: Notch1 (from UniProt P46531)
